Assay results as given in paper PMC9168731.

Tests used:
[1] = biological target: S. pombe Arp2/3 complex (S. pombe) (UniProt Q9UUJ1)
[2] = biological target: S. pombe Arp2/3 complex (S. pombe) (UniProt Q9UUJ1); remark: listed apart in the source

Chain of UniProt Q9UUJ1 (Q9UUJ1 whole entry, looked up, one chain of several): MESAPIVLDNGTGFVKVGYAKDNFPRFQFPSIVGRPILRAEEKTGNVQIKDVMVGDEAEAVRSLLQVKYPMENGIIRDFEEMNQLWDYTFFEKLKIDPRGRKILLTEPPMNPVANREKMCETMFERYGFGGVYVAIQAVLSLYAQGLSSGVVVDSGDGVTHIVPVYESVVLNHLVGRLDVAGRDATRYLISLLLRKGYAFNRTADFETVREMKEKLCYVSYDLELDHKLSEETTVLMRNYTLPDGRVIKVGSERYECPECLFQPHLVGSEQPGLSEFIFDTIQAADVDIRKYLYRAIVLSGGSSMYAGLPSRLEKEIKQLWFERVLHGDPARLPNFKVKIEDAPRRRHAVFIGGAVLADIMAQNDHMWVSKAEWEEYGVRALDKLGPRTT

Question: For “Dip1(N292K) (from UniProt O74771 1-374) (natural protein)”, which maximum polymerization rate, pyrene actin polymerization assay (3 μM 15% pyrene-labeled actin, 50 nM SpArp2/3 complex, 5 μM Dip1); 2.8 nM/s for reactions without Dip1 [1] is on record?
Answer: Its maximum polymerization rate, pyrene actin polymerization assay (3 μM 15% pyrene-labeled actin, 50 nM SpArp2/3 complex, 5 μM Dip1); 2.8 nM/s for reactions without Dip1 is 8 nM/s.

Question: For “Schizosaccharomyces pombe WDS protein Dip1, WT (from UniProt O74771 1-374) (natural protein)”, which maximum polymerization rate, pyrene actin polymerization assay (3 μM 15% pyrene-labeled actin, 50 nM SpArp2/3 complex, 5 μM Dip1); 2.8 nM/s for reactions without Dip1 [1] is on record?
Answer: Its maximum polymerization rate, pyrene actin polymerization assay (3 μM 15% pyrene-labeled actin, 50 nM SpArp2/3 complex, 5 μM Dip1); 2.8 nM/s for reactions without Dip1 is 20 nM/s.

Question: How did the activation of Arp2/3 complex, pyrene actin polymerization assay (3 μM 15% pyrene-labeled actin, 50 nM SpArp2/3 complex, 5 μM Dip1) (% reduction compared to WT Dip1) [2] turn out when “Dip1(R301E) (from UniProt O74771 1-374) (natural protein)” was run?
Answer: The activation of Arp2/3 complex, pyrene actin polymerization assay (3 μM 15% pyrene-labeled actin, 50 nM SpArp2/3 complex, 5 μM Dip1) (% reduction compared to WT Dip1) was greater than 60.
